In US20200113997A1:

Biological target: Man9-V3 glycopeptide (HIV-1 (clade B JRFL mini-V3))
Experiment: BLI, biotinylated peptide on streptavidin sensor, bivalent avidity model

Work on DH270.1 (antibody) yielded a Kd of 331 nM.
